Results: PMC3478282, “Probing the Putative Active Site of YjdL: An Unusual Proton-Coupled Oligopeptide Transporter from E. coli” (PLoS ONE, 2012)

Experiments:
[1] = biological target: YjdL from E. coli, wild type (E. coli) (UniProt P39276)
[2] = biological target: YjdL-Asp392Ser (E. coli) (UniProt P39276)
[3] = biological target: YjdL Tyr113Phe (E. coli) (UniProt P39276)
[4] = biological target: YjdL Tyr21Phe (E. coli) (UniProt P39276)
[5] = biological target: YjdL Tyr25Phe (E. coli) (UniProt P39276)
[6] = biological target: YjdL Tyr58Phe (E. coli) (UniProt P39276)
[7] = biological target: YjdL from E. coli, wild type (E. coli) (UniProt P39276); remark: listed apart in the source
[8] = biological target: YjdL-Ala281Phe (E. coli) (UniProt P39276)
[9] = biological target: YjdL-Trp278Phe (E. coli) (UniProt P39276)

Row | β-Ala-Lys(AMCA) uptake (0.5 mM) left with 50 mM competitor, E. coli cells, pH 6.5 [1] [%] | β-Ala-Lys(AMCA) uptake (0.5 mM) left with 50 mM competitor, E. coli cells, pH 6.5 [2] [%] | IC50 of inhibition of β-Ala-Lys(AMCA) uptake into E. coli cells (0.2 mM substrate, 5 min, pH 6.5) [3] [mM] | IC50 of inhibition of β-Ala-Lys(AMCA) uptake into E. coli cells (0.2 mM substrate, 5 min, pH 6.5) [4] [mM] | IC50 of inhibition of β-Ala-Lys(AMCA) uptake into E. coli cells (0.2 mM substrate, 5 min, pH 6.5) [5] [mM] | IC50 of inhibition of β-Ala-Lys(AMCA) uptake into E. coli cells (0.5 mM substrate, 15 min, pH 6.5) [6] [mM] | IC50 of inhibition of β-Ala-Lys(AMCA) uptake into E. coli cells (0.2 mM substrate, 5 min, pH 6.5) [7] [mM] | IC50 of inhibition of β-Ala-Lys(AMCA) uptake into E. coli cells (0.5 mM substrate, 15 min, pH 6.5) [7] [mM] | IC50 of inhibition of β-Ala-Lys(AMCA) uptake into E. coli cells (0.2 mM substrate, 5 min, pH 6.5) [8] [mM] | IC50 of inhibition of β-Ala-Lys(AMCA) uptake into E. coli cells (0.2 mM substrate, 5 min, pH 6.5) [9] [mM] | Substance
1 | 55 | 34 | – | – | – | – | – | – | – | – | Ala-Ala-Ala (peptide)
2 | < 10 | – | 0.34 | 0.45 | 0.4 | > 50 | 0.28 | 0.89 | 0.26 | 0.38 | Ala-Lys (peptide)
